Starred links: 1 amine or outer side, 2 acyl side, 3 side chain; linkers in the order of their positions; H or OH if unused. Positions of bridges follow the written chain, without caps; N, C: chain ends. Non-standard residues stand in square brackets, D forms with d. Primed or numbered codes have the meaning given here. *: point of attachment. PyrS2(3) = (S)-3-amino-1-((pent-4-en-1-yloxy)carbonyl)pyrrolidine-3-carboxylic acid, stapling residue, C=CCCCOC(=O)N1CC[C@@](N[*:1])(C(=O)[*:2])C1; PyrS2″ = (S)-3-amino-1-((pent-4-en-1-yloxy)carbonyl)pyrrolidine-3-carboxylic acid (stapling residue), C=CCCCOC(=O)N1CC[C@@](N[*:1])(C(=O)[*:2])C1; B5(18) = 2,2-bis(4-pentenyl)glycine (2-amino-2-(pent-4-en-1-yl)hept-6-enoic acid), stitching residue, C=CCCCC(CCCC=C)(N[*:1])C(=O)[*:2]; TfeGA = (S)-2-amino-3-((carboxymethyl)(2,2,2-trifluoroethyl)amino)propanoic acid, O=C([C@H](CN(CC(=O)[*:3])CC(F)(F)F)N[*:1])[*:2]; PyrS2 = (S)-3-amino-1-((pent-4-en-1-yloxy)carbonyl)pyrrolidine-3-carboxylic acid, C=CCCCOC(=O)N1CC[C@@](N[*:1])(C(=O)[*:2])C1; 2COOH4NO2Ph = 2-carboxy-4-nitrophenyl group on the side chain (attached at Dap N or Cys S), O=C(O)c1cc([N+](=O)[O-])ccc1*; B5(12) = 2-amino-2-(pent-4-en-1-yl)hept-6-enoic acid (two olefin side chains), C=CCCCC(CCCC=C)(N[*:1])C(=O)[*:2]; 2COOHF = (S)-2-(2-amino-2-carboxyethyl)benzoic acid, O=C([C@H](Cc1ccccc1C(=O)[*:3])N[*:1])[*:2]; B5(3) = 2,2-bis(4-pentenyl)glycine (stitching residue), C=CCCCC(CCCC=C)(N[*:1])C(=O)[*:2]; Phe(3-COOH) = N[C@@H](Cc1cccc(C(=O)O)c1)C(=O)O; Phe(4-COOH) = N[C@@H](Cc1ccc(C(=O)O)cc1)C(=O)O; Bta = N[C@@H](Cc1csc2ccccc12)C(=O)O; αAllylPro = C=CC[C@@]1(C(=O)O)CCCN1; tBuAla = CC(C)(C)C[C@H](N)C(=O)O; 3Thi = N[C@@H](Cc1ccsc1)C(=O)O; Cit = NC(=O)NCCC[C@H](N)C(=O)O; PyrS2(4) = not defined here; TfeGA″ = not defined here; Dap = NC[C@H](N)C(=O)O
T1: B-cat-Halo (beta-catenin HaloTag construct expressed in HEK293 cells) (UniProt P35222 1-781)
T1 sequence (looked up): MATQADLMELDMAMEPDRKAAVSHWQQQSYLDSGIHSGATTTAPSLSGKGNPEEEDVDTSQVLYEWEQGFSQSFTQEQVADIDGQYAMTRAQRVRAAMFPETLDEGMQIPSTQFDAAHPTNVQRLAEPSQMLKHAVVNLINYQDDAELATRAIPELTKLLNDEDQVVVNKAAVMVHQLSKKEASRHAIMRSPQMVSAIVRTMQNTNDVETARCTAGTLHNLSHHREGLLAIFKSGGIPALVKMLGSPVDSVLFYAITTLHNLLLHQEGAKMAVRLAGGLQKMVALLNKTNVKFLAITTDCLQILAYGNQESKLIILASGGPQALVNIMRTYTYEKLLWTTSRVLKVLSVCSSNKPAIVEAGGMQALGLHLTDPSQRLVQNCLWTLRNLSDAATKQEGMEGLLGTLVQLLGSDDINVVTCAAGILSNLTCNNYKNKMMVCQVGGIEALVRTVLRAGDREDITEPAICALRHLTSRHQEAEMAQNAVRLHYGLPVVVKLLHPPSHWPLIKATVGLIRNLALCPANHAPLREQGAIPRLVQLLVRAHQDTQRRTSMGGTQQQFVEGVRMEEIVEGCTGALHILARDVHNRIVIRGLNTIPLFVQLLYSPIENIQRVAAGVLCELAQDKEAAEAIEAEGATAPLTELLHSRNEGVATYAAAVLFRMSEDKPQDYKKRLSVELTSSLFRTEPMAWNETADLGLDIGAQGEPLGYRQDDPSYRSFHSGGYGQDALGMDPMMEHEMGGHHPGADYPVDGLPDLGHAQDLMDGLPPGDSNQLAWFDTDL

T2: B-cat-Halo (UniProt P35222 1-781)
T2 sequence (looked up): T1 sequence (looked up)


biological target: T1, B-cat-Halo (beta-catenin HaloTag …); experiment: cell-based or functional assay

Row | NanoBRET Abs IC50 [µM] | Binder
1 | 9.5 | Ac-[αAllylPro]D[tBuAla][B5(18)]D[Dap](2COOH4NO2Ph)AAFL[PyrS2(3)][3Thi][Bta]Q-NH2 (staple 1-4, 4-11) [I-1843]

biological target: T2, B-cat-Halo; experiment: cell-based or functional assay

Row | NanoBRET Abs IC50 [µM] | Binder
2 | 34.4 | Ac-[αAllylPro]D[tBuAla][B5(3)]D[Cit]AAFN[PyrS2″][3Thi][Bta]H-NH2 (staple 1-4, 4-11) [I-841]
3 | 3.6 | Ac-[αAllylPro]D[tBuAla][B5(3)]D[TfeGA]AAFL[PyrS2][3Thi][Bta]Q-NH2 (staple 1-4, 4-11) [I-849]
4 | 7 | Ac-[αAllylPro]D[tBuAla][B5(3)]D[TfeGA″]AAFF[PyrS2(4)][3Thi][Bta]Q-NH2 (staple 1-4, 4-11; reading uncertain) [I-848]
5 | 23.8 | Ac-[αAllylPro]D[tBuAla][B5(3)]DNAAFN[PyrS2″][3Thi][Bta]H-NH2 (staple 1-4, 4-11) [I-837]
6 | 2.8 | Ac-[αAllylPro]D[tBuAla][B5(3)]D[Phe(3-COOH)]AAFF[PyrS2][3Thi][Bta]Q-NH2 (staple 1-4, 4-11) [I-852]
7 | 7.6 | Ac-[αAllylPro]D[tBuAla][B5(3)]D[Phe(4-COOH)]AAFL[PyrS2][3Thi][Bta]Q-NH2 (staple 1-4, 4-11) [I-851]
8 | 22.3 | Ac-[αAllylPro]D[tBuAla][B5(3)]D[Cit]AAFN[PyrS2″][3Thi][Bta]Q-NH2 (staple 1-4, 4-11) [I-840]
9 | 3.6 | Ac-[αAllylPro]D[tBuAla][B5(12)]D[2COOHF]AAFL[PyrS2][3Thi][Bta]Q-NH2 (staple 1-4, 4-11) [I-854]

Further lines, the binder ahead of its results:

Row | Binder | NanoBRET Abs IC50 [µM]
10 | Ac-[αAllylPro]D[tBuAla][B5(3)]DYAAFN[PyrS2″][3Thi][Bta]Q-NH2 (staple 1-4, 4-11) [I-842] | 47.9
11 | Ac-[αAllylPro]D[tBuAla][B5(3)]DQAAFN[PyrS2″][3Thi][Bta]Q-NH2 (staple 1-4, 4-11) [I-838] | 17.4
12 | Ac-[αAllylPro]D[tBuAla][B5(3)]DQAAFN[PyrS2″][3Thi][Bta]H-NH2 (staple 1-4, 4-11) [I-839] | 41.9
13 | Ac-[αAllylPro]D[tBuAla][B5(3)]DLAAFN[PyrS2(4)][3Thi][Bta]H-NH2 (staple 1-4, 4-11; reading uncertain) [I-847] | > 20
14 | Ac-[αAllylPro]D[tBuAla][B5(3)]D[Phe(4-COOH)]AAFF[PyrS2][3Thi][Bta]Q-NH2 (staple 1-4, 4-11) [I-850] | 16.4
15 | Ac-[αAllylPro]D[tBuAla][B5(12)]DNAAFL[PyrS2][3Thi][Bta]Q-NH2 (staple 1-4, 4-11) [I-856] | 6.8

Reference: patent US20240116985A1 (published 2024)
